Positions of bridges follow the written chain, without caps; N, C: chain ends. No end group written: not given here. *: point of attachment. X1 = 3‑(4-hydroxy-3-iodophenyl)propionyl, O=C(CCc1ccc(O)c(I)c1)*
Columns and labels:
Type in all cases: biochemical
[1] = molecular target: T1, rat SLC-1 (Rattus norvegicus, UniProt P97639); assay: Inhibition of MCH-induced GTPγS binding by the method of Example 21 (compound plus MCH); conditions: read-out: IC50 calculated from the binding inhibition rate (%)
T1 construct: expressed in transfected cells; host or cells: CHO dhfr- cells, plasmid pAKK0-SLC-1, mainly clone #44
T1 sequence (P97639 whole entry): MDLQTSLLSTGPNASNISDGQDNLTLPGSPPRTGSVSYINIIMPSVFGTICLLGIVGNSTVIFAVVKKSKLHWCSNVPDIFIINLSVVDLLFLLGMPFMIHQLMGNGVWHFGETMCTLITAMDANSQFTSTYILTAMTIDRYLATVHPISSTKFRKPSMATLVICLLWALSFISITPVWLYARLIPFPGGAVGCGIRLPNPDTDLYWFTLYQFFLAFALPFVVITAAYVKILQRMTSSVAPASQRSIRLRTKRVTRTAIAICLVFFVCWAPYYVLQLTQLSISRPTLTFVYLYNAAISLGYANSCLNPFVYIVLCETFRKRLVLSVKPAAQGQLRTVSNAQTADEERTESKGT
Experimental: The IC50(nM) of the compound (1) supra
(§1) A rat SLC-1-expression CHO cell membrane fraction was prepared by the following procedure. Rat SLC-1-expression CHO cells (1×10^8 cells) were suspended in phosphate buffered saline (pH 7.4) supplemented with 5 mM EDTA (ethylene diamine tetra acetic acid) followed by centrifugation. after 10 ml of a homogenate buffer (10 mM NaHCO3, 5 mM EDTA, pH 7.5) was added to the cell pellets, the mixture was homogenized with a polytron homogenizer. the homogenate was then centrifuged at 400×g for 15 minutes. the resulting supernatant was further centrifuged at 100,000×g for an hour to give membrane fraction precipitates. the precipitates were suspended in 2 ml of an assay buffer (50 mM Tris-HCl (pH 7.5), 1 mM EDTA, 0.1% BSA (bovine serum albumin), 10 mM MgCl2, 100 mM NaCl, 1 μM GDP (guanosine 5′-diphosphate), 0.25 mM PMSF (phenylmethylsulfonyl fluoride), 1 μg/ml pepstatin, 20 μg/ml leupeptin, 10 μg/ml phosphoramidon). the suspension was centrifuged at 100,000×g for an hour. the cell membrane recovered as precipitates was resuspended in 20 ml of the assay buffer. after dispensing, the suspension was stored at −80° C., which maybe thawed every time upon use.

[2] = molecular target: T1, rat SLC-1; assay: Agonist activity by GTPγS binding assay, rat SLC-1-expression CHO cell membrane fraction (Example 21); conditions: rat SLC-1 membrane, FIG. 7
Experimental: as §1

[3] = molecular target: T2, human SLC-1 (Homo sapiens, UniProt Q99705); assay: Agonist activity of Bolton-Hunter derivatized MCHs by GTPγS binding assay (Example 22); conditions: membrane fraction given as human SLC-1-expression CHO; FIG. 8
T2 construct: expressed in transfected cells; host or cells: CHO dhfr- cells, plasmid pAKK0-hSLC-1(S) or pAKK0-hSLC-1(L)
T2 sequence (Q99705 with tags, fused parts or gaps): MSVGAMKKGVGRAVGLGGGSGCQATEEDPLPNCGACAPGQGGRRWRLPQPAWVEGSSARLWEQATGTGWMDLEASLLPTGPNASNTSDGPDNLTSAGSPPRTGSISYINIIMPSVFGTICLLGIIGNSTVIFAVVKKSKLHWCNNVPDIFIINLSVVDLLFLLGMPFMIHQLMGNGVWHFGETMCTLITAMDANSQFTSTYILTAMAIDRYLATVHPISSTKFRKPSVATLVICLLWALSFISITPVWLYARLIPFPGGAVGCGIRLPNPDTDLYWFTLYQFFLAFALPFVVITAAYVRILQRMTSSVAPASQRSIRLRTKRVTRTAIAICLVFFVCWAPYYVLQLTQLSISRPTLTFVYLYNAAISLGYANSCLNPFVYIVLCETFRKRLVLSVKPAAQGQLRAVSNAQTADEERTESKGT

| Molecule | agonist activity as compared to that of MCH [2] | amount of [35S]-GTPγS bound (agonist activity), dose dependence [3] | also measured |
| --- | --- | --- | --- |
| COc1ccc(-c2ccc(C(=O)Nc3ccc4c(c3)CCC(CN(C)C)C4)cc2)cc1 (stereo not shown) [compound (1), N-[2-(N,N-Dimethylamino)methyl-6-tetralinyl]-(4′-methoxybiphenyl-4-yl)carboxamide] |  |  | IC50 [1]: 40 nM |
| Asp-Met-Leu-Arg-Cys-Met-Leu-Gly-Arg-Val-Tyr-Arg-Pro-Cys -Trp-Gln-Val (DMLRCMLGRVYRPCWQV; disulfide 5-14) [MCH(3-19)] | almost the same agonist activity |  |  |
| BH-MCH(2-19): MCH(2-19) derivatized with a non-isotope Bolton-Hunter reagent (X1-FDMLRCMLGRVYRPCWQV; disulfide 6-15) |  | increased dose-dependently |  |
| BH-MCH(3-19): MCH(3-19) derivatized with a non-isotope Bolton-Hunter reagent (X1-DMLRCMLGRVYRPCWQV; disulfide 5-14) |  | increased dose-dependently |  |
| BH-MCH(5-19): MCH(5-19) derivatized with a non-isotope Bolton-Hunter reagent (X1-LRCMLGRVYRPCWQV; disulfide 3-12) |  | increased dose-dependently |  |
| Des-[Asp^1, Phe^2, Asp^3, Met, Leu^5]-MCH (RCMLGRVYRPCWQV; disulfide 2-11) [MCH(6-19)] |  |  | decrease of agonist activity as compared to that of MCH [2]: approximately 10 times |
| Leu-Arg-Cys-Met-Leu-Gly-Arg-Val-Tyr-Arg-Pro-Cys-Trp-Gln -Val-OH (LRCMLGRVYRPCWQV-OH; disulfide 3-12; N-terminus assumed; SMILES CSCC[C@@H]1NC(=O)[C@@H](NC(=O)[C@H](CCCNC(=N)N)NC(=O)[C@@H](N)CC(C)C)CSSC[C@@H](C(=O)N[C@@H](Cc2c[nH]c3ccccc23)C(=O)N[C@@H](CCC(N)=O)C(=O)N[C@H](C(=O)O)C(C)C)NC(=O)[C@@H]2CCCN2C(=O)[C@H](CCCNC(=N)N)NC(=O)[C@H](Cc2ccc(O)cc2)NC(=O)[C@H](C(C)C)NC(=O)[C@H](CCCNC(=N)N)NC(=O)CNC(=O)[C@H](CC(C)C)NC1=O) [MCH(5-19)] | almost the same agonist activity |  |  |
| Met-Leu-Arg-Cys-Met-Leu-Gly-Arg-Val-Tyr-Arg-Pro-Cys-Trp -Gln-Val (MLRCMLGRVYRPCWQV; disulfide 4-13) [MCH(4-19)] | almost the same agonist activity |  |  |
| Phe-Asp-Met-Leu-Arg-Cys-Met-Leu-Gly-Arg-Val-Tyr-Arg-Pro -Cys-Trp-Gln-Val (FDMLRCMLGRVYRPCWQV; disulfide 6-15) [MCH(2-19)] | almost the same agonist activity |  |  |
| [N-(3-(4-Hydroxy-3-iodophenyl)propionyl)-Met^4]-MCH(4-19) (X1-MLRCMLGRVYRPCWQV; disulfide 4-13) [BH-MCH(4-19)] |  | increased dose-dependently |  |
